The subject of series [1] is HeLa Kyoto. The experiment in a line: solubility in G1/S (NP-40 vs SDS abundance) (log2 ratio); higher = more soluble. The following applies: cell cycle stage: G1/S.
Series [2] deals with HeLa Kyoto. The series can be described thus: melting temperature (median over replicates), in situ; higher = more thermally stable.
Series [3] concerns HeLa Kyoto. The series can be described thus: thermal stability score vs G1/S (z-score of summed log2 fold changes over temperatures); higher = more thermally stable than in G1/S.
The test system of series [4] is HeLa Kyoto. The series can be described thus: solubility change mitosis vs G1/S (difference of NP-40 vs SDS log2 ratios) (log2 ratio difference); higher = more soluble in mitosis.
Setting [5] is: cell cycle stage: early G1 (4.5 h after nocodazole release).
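Throughout, for melting temperature (median over replicates), in situ: HeLa Kyoto cells synchronized by double thymidine or nocodazole block, proteins quantified by TMT10plex mass spectrometry, three independent biological replicates.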
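Throughout, for solubility change mitosis vs G1/S (difference of NP-40 vs SDS log2 ratios): synchronized HeLa Kyoto cells (double thymidine block for G1/S, nocodazole release for mitosis), protein amounts in NP-40 versus SDS lysates quantified by mass spectrometry, three biological replicates.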
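Throughout, for solubility in G1/S (NP-40 vs SDS abundance): HeLa Kyoto cells arrested at G1/S by double thymidine block, proteins quantified by TMT10plex mass spectrometry in mild NP-40 versus SDS extracts, three biological replicates.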
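Throughout, for thermal stability score vs G1/S (z-score of summed log2 fold changes over temperatures): synchronized HeLa Kyoto cells, proteins quantified by TMT10plex mass spectrometry, three biological replicates, mitosis taken 0.5 h after nocodazole release, G1/S directly after double thymidine block.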

As to “MLTNLRIFAMSHQTIPSVYINNICCYKIRASLKRLKPHVPLGRNCSSLPGLIGNDIKSLHSIINPPIAKIRNIGIMAHIDAGKTTTTERILYYSGYTRSLGDVDDGDTVTDFMAQERERGITIQSAAVTFDWKGYRVNLIDTPGHVDFTLEVERCLRVLDGAVAVFDASAGVEAQTLTVWRQADKHNIPRICFLNKMDKTGASFKYAVESIREKLKAKPLLLQLPIGEAKTFKGVVDVVMKEKLLWNCNSNDGKDFERKPLLEMNDPELLKETTEARNALIEQVADLDDEFADLVLEEFSENFDLLPAEKLQTAIHRVTLAQTAVPVLCGSALKNKGIQPLLDAVTMYLPSPEERNYEFLQWYKDDLCALAFKVLHDKQRGPLVFMRIYSGTIKPQLAIHNINGNCTERISRLLLPFADQHVEIPSLTAGNIALTVGLKHTATGDTIVSSKSSALAAARRAEREGEKKHRQNNEAERLLLAGVEIPEPVFFCTIEPPSLSKQPDLEHALKCLQREDPSLKVRLDPDSGQTVLCGMGELHIEIIHDRIKREYGLETYLGPLQVAYRETILNSVRATDTLDRTLGDKRHLVTVEVEARPIETSSVMPVIEFEYAESINEGLLKVSQEAIENGIHSACLQGPLLGSPIQDVAITLHSLTIHPGTSTTMISACVSRCVQKALKKADKQVLEPLMNLEVTVARDYLSPVLADLAQRRGNIQEIQTRQDNKVVIGFVPLAEIMGYSTVLRTLTSGSATFALELSTYQAMNPQDQNTLLNRRSGLT [GFM2]”, in the series on HeLa Kyoto [1], the “solubility in G1/S (log2)” value was -0.0849. The values for the melting temperature with HeLa Kyoto [2] (cell cycle stage: G1/S) and in the series with HeLa Kyoto [2] (cell cycle stage: mitosis) were 49.2 °C and 49.3 °C, respectively. The thermal stability score was 1.87 with HeLa Kyoto [3] (setting [5]) and 1.26 in the series on HeLa Kyoto [3] (cell cycle stage: mitosis). Further, in the series on HeLa Kyoto [4], the “solubility change mitosis (log2)” value was -0.0596.
As to “MLTRVKSAVANFMGGIMAGSSGSEHGGGSCGGSDLPLRFPYGRPEFLGLSQDEVECSADHIARPILILKETRRLPWATGYAEVINAGKSTHNEDQASCEVLTVKKKAGAVTSTPNRNSSKRRSSLPNGEGLQLKENSESEGVSCHYWSLFDGHAGSGAAVVASRLLQHHITEQLQDIVDILKNSAVLPPTCLGEEPENTPANSRTLTRAASLRGGVGAPGSPSTPPTRFFTEKKIPHECLVIGALESAFKEMDLQIERERSSYNISGGCTALIVICLLGKLYVANAGDSRAIIIRNGEIIPMSSEFTPETERQRLQYLAFMQPHLLGNEFTHLEFPRRVQRKELGKKMLYRDFNMTGWAYKTIEDEDLKFPLIYGEGKKARVMATIGVTRGLGDHDLKVHDSNIYIKPFLSSAPEVRIYDLSKYDHGSDDVLILATDGLWDVLSNEEVAEAITQFLPNCDPDDPHRYTLAAQDLVMRARGVLKDRGWRISNDRLGSGDDISVYVIPLIHGNKLS [PPM1H]”, the “solubility in G1/S (log2)” value in the series on HeLa Kyoto [1] came out at 0.29. Besides, the melting temperature with HeLa Kyoto [2] (cell cycle stage: G1/S) was 55.9 °C; in the series with HeLa Kyoto [2] (cell cycle stage: mitosis), 56.9 °C. The thermal stability score was -2.63 with HeLa Kyoto [3] (setting [5]) and -1.3 with HeLa Kyoto [3] (cell cycle stage: mitosis). Further, in the series on HeLa Kyoto [4], the “solubility change mitosis (log2)” value was 0.221.
For the sequence “MLWPRLAAAEWAALAWELLGASVLLIAVRWLVRRLGPRPGGLGRSGTPVPPPSAAAAPASGEMTMDALLARLKLLNPDDLREEIVKAGLKCGPITSTTRFIFEKKLAQALLEQGGRLSSFYHHEAGVTALSQDPQRILKPAEGNPTDQAGFSEDRDFGYSVGLNPPEEEAVTSKTCSVPPSDTDTYRAGATASKEPPLYYGVCPVYEDVPARNERIYVYENKKEALQAVKMIKGSRFKAFSTREDAEKFARGICDYFPSPSKTSLPLSPVKTAPLFSNDRLKDGLCLSESETVNKERANSYKNPRTQDLTAKLRKAVEKGEEDTFSDLIWSNPRYLIGSGDNPTIVQEGCRYNVMHVAAKENQASICQLTLDVLENPDFMRLMYPDDDEAMLQKRIRYVVDLYLNTPDKMGYDTPLHFACKFGNADVVNVLSSHHLIVKNSRNKYDKTPEDVICERSKNKSVELKERIREYLKGHYYVPLLRAEETSSPVIGELWSPDQTAEASHVSRYGGSPRDPVLTLRAFAGPLSPAKAEDFRKLWKTPPREKAGFLHHVKKSDPERGFERVGRELAHELGYPWVEYWEFLGCFVDLSSQEGLQRLEEYLTQQEIGKKAQQETGEREASCRDKATTSGSNSISVRAFLDEDDMSLEEIKNRQNAARNNSPPTVGAFGHTRCSAFPLEQEADLIEAAEPGGPHSSRNGLCHPLNHSRTLAGKRPKAPRGEEAHLPPVSDLTVEFDKLNLQNIGRSVSKTPDESTKTKDQILTSRINAVERDLLEPSPADQLGNGHRRTESEMSARIAKMSLSPSSPRHEDQLEVTREPARRLFLFGEEPSKLDQDVLAALECADVDPHQFPAVHRWKSAVLCYSPSDRQSWPSPAVKGRFKSQLPDLSGPHSYSPGRNSVAGSNPAKPGLGSPGRYSPVHGSQLRRMARLAELAAL [ANKLE2]”, the “solubility in G1/S (log2)” value in the series with HeLa Kyoto [1] was determined as 0.122. Besides, the melting temperature came to 47.5 °C in the series with HeLa Kyoto [2] (cell cycle stage: G1/S) and 48.1 °C in the series on HeLa Kyoto [2] (cell cycle stage: mitosis). For the same sequence, the thermal stability score with HeLa Kyoto [3] (setting [5]) came to 2.02; with HeLa Kyoto [3] (cell cycle stage: mitosis) it was 3.19. For the same sequence, in the series with HeLa Kyoto [4], the “solubility change mitosis (log2)” value worked out at 0.146.
Regarding “MLYLIGLGLGDAKDITVKGLEVVRRCSRVYLEAYTSVLTVGKEALEEFYGRKLVVADREEVEQEADNILKDADISDVAFLVVGDPFGATTHSDLVLRATKLGIPYRVIHNASIMNAVGCCGLQLYKFGETVSIVFWTDTWRPESFFDKVKKNRQNGMHTLCLLDIKVKEQSLENLIKGRKIYEPPRYMSVNQAAQQLLEIVQNQRIRGEEPAVTEETLCVGLARVGADDQKIAAGTLRQMCTVDLGEPLHSLIITGGSIHPMEMEMLSLFSIPENSSESQSINGL [DPH5]”, in the series on HeLa Kyoto [1], the “solubility in G1/S (log2)” value came to 0.11. For the same sequence, the melting temperature worked out at 54.6 °C in the series with HeLa Kyoto [2] (cell cycle stage: G1/S) and 55.3 °C with HeLa Kyoto [2] (cell cycle stage: mitosis). Moreover, the values for the thermal stability score in the series with HeLa Kyoto [3] (setting [5]) and in the series on HeLa Kyoto [3] (cell cycle stage: mitosis) were 1.75 and 1.39, respectively. Also, in the series on HeLa Kyoto [4], the “solubility change mitosis (log2)” value is -0.136.
As to “MMAAGAALALALWLLMPPVEVGGAGPPPIQDGEFTFLLPAGRKQCFYQSAPANASLETEYQVIGGAGLDVDFTLESPQGVLLVSESRKADGVHTVEPTEAGDYKLCFDNSFSTISEKLVFFELIFDSLQDDEEVEGWAEAVEPEEMLDVKMEDIKESIETMRTRLERSIQMLTLLRAFEARDRNLQEGNLERVNFWSAVNVAVLLLVAVLQVCTLKRFFQDKRPVPT [TMED1]”, the “solubility in G1/S (log2)” value with HeLa Kyoto [1] was 0.437. Moreover, the melting temperature was found to be 55.1 °C in the series on HeLa Kyoto [2] (cell cycle stage: G1/S) and 57.2 °C in the series with HeLa Kyoto [2] (cell cycle stage: mitosis). The thermal stability score in the series with HeLa Kyoto [3] (setting [5]) was 2.89; in the series with HeLa Kyoto [3] (cell cycle stage: mitosis), 2.9. The “solubility change mitosis (log2)” value in the series on HeLa Kyoto [4] was -0.147.
Take “MMDLRNTPAKSLDKFIEDYLLPDTCFRMQINHAIDIICGFLKERCFRGSSYPVCVSKVVKGGSSGKGTTLRGRSDADLVVFLSPLTTFQDQLNRRGEFIQEIRRQLEACQRERAFSVKFEVQAPRWGNPRALSFVLSSLQLGEGVEFDVLPAFDALGQLTGGYKPNPQIYVKLIEECTDLQKEGEFSTCFTELQRDFLKQRPTKLKSLIRLVKHWYQNCKKKLGKLPPQYALELLTVYAWERGSMKTHFNTAQGFRTVLELVINYQQLCIYWTKYYDFKNPIIEKYLRRQLTKPRPVILDPADPTGNLGGGDPKGWRQLAQEAEAWLNYPCFKNWDGSPVSSWILLAESNSADDETDDPRRYQKYGYIGTHEYPHFSHRPSTLQAASTPQAEEDWTCTIL [OAS1]”: the “solubility in G1/S (log2)” value with HeLa Kyoto [1] was found to be 0.134. Moreover, the melting temperature turned out to be 50.5 °C with HeLa Kyoto [2] (cell cycle stage: G1/S) and 49.5 °C in the series on HeLa Kyoto [2] (cell cycle stage: mitosis). The thermal stability score in the series with HeLa Kyoto [3] (setting [5]) was -0.255; in the series with HeLa Kyoto [3] (cell cycle stage: mitosis), 0.00402. Also, the “solubility change mitosis (log2)” value in the series on HeLa Kyoto [4] was -0.0843.

The record behind these values is the supplement of paper PMC5998384.
